The numbers were not newly measured in patent KR20200047176A, “투라노스의 제조방법” (주식회사 삼양사, priority 2018, dated 2020), which cites them from elsewhere.

The conditions of the data set: 2 M sucrose substrate.

B1: NpAS: amylosucrase from Neisseria polysaccharea, known prior enzyme (protein, UniProt Q9ZEU2 1-636, looked up)
Amylosucrase: MLTPTQQVGLILQYLKTRILDIYTPEQRAGIEKSEDWRQFSRRMDTHFPKLMNELDSVYGNNEALLPMLEMLLAQAWQSYSQRNSSLKDIDIARENNPDWILSNKQVGGVCYVDLFAGDLKGLKDKIPYFQELGLTYLHLMPLFKCPEGKSDGGYAVSSYRDVNPALGTIGDLREVIAALHEAGISAVVDFIFNHTSNEHEWAQRCAAGDPLFDNFYYIFPDRRMPDQYDRTLREIFPDQHPGGFSQLEDGRWVWTTFNSFQWDLNYSNPWVFRAMAGEMLFLANLGVDILRMDAVAFIWKQMGTSCENLPQAHALIRAFNAVMRIAAPAVFFKSEAIVHPDQVVQYIGQDECQIGYNPLQMALLWNTLATREVNLLHQALTYRHNLPEHTAWVNYVRSHDDIGWTFADEDAAYLGISGYDHRQFLNRFFVNRFDGSFARGVPFQYNPSTGDCRVSGTAAALVGLAQDDPHAVDRIKLLYSIALSTGGLPLIYLGDEVGTLNDDDWSQDSNKSDDSRWAHRPRYNEALYAQRNDPSTAAGQIYQGLRHMIAVRQSNPRFDGGRLVTFNTNNKHIIGYIRNNALLAFGNFSEYPQTVTAHTLQAMPFKAHDLIGGKTVSLNQDLTLQPYQVMWLEIA
For the molecule B1, the turanose conversion is listed as 50.9%.
